Experimental data published in paper PMC3509434.

How the values were obtained:
[1] = molecular target: soluble gB truncated at amino acid 730, gB(730t) (herpes simplex virus 1 (HSV-1)) (UniProt P06437); test: SEC
[2] = molecular target: soluble gB truncated at amino acid 739, gB(739t) (herpes simplex virus 1 (HSV-1), strain KOS) (UniProt P06437); test: SEC
[3] = molecular target: soluble gB truncated at amino acid 739, gB(739t) (herpes simplex virus 1 (HSV-1), strain KOS) (UniProt P06437); test: native gel or EMSA
[4] = molecular target: soluble gB truncated at amino acid 749, gB(749t) (herpes simplex virus 1 (HSV-1), strain KOS) (UniProt P06437); test: SEC
[5] = molecular target: soluble gB truncated at amino acid 749, gB(749t) (herpes simplex virus 1 (HSV-1), strain KOS) (UniProt P06437); test: native gel or EMSA
[6] = molecular target: soluble gB truncated at amino acid 759, gB(759t) (herpes simplex virus 1 (HSV-1), strain KOS) (UniProt P06437); test: SEC
[7] = molecular target: soluble gB truncated at amino acid 759, gB(759t) (herpes simplex virus 1 (HSV-1), strain KOS) (UniProt P06437); test: native gel or EMSA
[8] = molecular target: soluble gB truncated at amino acid 773, gB(773t) (herpes simplex virus 1 (HSV-1), strain KOS) (UniProt P06437); test: SEC
[9] = molecular target: soluble gB truncated at amino acid 773, gB(773t) (herpes simplex virus 1 (HSV-1), strain KOS) (UniProt P06437); test: native gel or EMSA

## soluble gB truncated at amino acid 730, gB(730t) (from UniProt P06437 31-730) (domain or fragment)
[1]
  stoichiometry N: 3

## soluble gB truncated at amino acid 739, gB(739t) (from UniProt P06437 31-739) (domain or fragment)
[2]
  stoichiometry N: 3
[3]
  stoichiometry N: 3

## soluble gB truncated at amino acid 749, gB(749t) (from UniProt P06437 31-749) (domain or fragment)
[4]
  stoichiometry N: 3
[5]
  stoichiometry N: 3

## soluble gB truncated at amino acid 759, gB(759t) (from UniProt P06437 31-759) (domain or fragment)
[6]
  stoichiometry N: 3
[7]
  stoichiometry N: 3

## soluble gB truncated at amino acid 773, gB(773t) (from UniProt P06437 31-773) (domain or fragment)
[8]
  stoichiometry N: 3
[9]
  stoichiometry N: 3
